From paper PMC9425443 (RSC Advances, 2022)
Counter-ions that a name gives are not always drawn.

Tests used:
[1] = tested on: CC(C)CCC[C@@H](C)[C@H]1CC[C@H]2[C@@H]3CCC4=CC(=O)CC[C@]4(C)[C@H]3CC[C@]12C; assay: purified protein, by the assay type; details: pH 7.5
recombinant CYP142A1 = recombinant CYP142A1 (Mycobacterium tuberculosis, UniProt P9WPL5); details: pH 7.4
Chain of recombinant CYP142A1 (P9WPL5 whole entry): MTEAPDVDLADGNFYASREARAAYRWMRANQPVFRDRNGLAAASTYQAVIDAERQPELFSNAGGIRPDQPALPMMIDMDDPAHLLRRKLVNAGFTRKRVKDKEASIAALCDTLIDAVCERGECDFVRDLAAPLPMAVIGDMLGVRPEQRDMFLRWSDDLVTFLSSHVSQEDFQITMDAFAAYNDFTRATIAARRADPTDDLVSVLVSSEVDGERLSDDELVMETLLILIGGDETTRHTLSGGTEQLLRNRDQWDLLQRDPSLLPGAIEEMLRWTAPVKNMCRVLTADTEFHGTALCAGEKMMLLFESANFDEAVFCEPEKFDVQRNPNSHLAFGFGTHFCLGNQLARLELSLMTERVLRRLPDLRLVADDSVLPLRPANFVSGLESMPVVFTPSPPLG

Row | Compound | Km [1] [µM] | kcat [1] [s⁻¹] | Kd (recombinant CYP142A1) [µM]
1 | (Mycobacterium tuberculosis H37Rv) | 35 ± 5.4 | 0.128 ± 0.00717 | 
2 | Cholesteryl propionate |  |  | 45 ± 7
3 | CC(C)CCC[C@@H](C)[C@H]1CC[C@H]2[C@@H]3CC=C4C[C@@H](OS(=O)(=O)O)CC[C@]4(C)[C@H]3CC[C@]12C [Cholesteryl sulfate] |  |  | 27 ± 6.9
